# Data taken from paper PMC6461089, “Characterization of the phosphotransacetylase-acetate kinase pathway for ATP production in Porphyromonas gingivalis” (Journal of Oral Microbiology, 2019).
# How the values were obtained:
# Format in all cases: biochemical, Porphyromonas gingivalis
# [1] = substrate: CC(=O)OP(=O)(O)O; assay: ATP formation coupled to hexokinase / glucose-6-phosphate dehydrogenase (NADPH, A340), secondary plots; conditions: co-substrate ADP (0.267-2.67 mM, extrapolated), 50 mM Tris/HCl pH 8.0, 1.3 mM MgCl2 (methods also mention MnCl2), 37°C
# Excerpt: (§1) ATP formation coupled to hexokinase / glucose-6-phosphate dehydrogenase (NADPH, A340), secondary plots on PgAck (PGN_1178)
# [2] = substrate: Nc1ncnc2c1ncn2[C@@H]1O[C@H](COP(=O)(O)OP(=O)(O)O)[C@@H](O)[C@H]1O; assay: as above; conditions: co-substrate AcP (0.0667-0.667 mM, extrapolated), 50 mM Tris/HCl pH 8.0, 1.3 mM MgCl2 (methods also mention MnCl2), 37°C
# Excerpt: as §1
# [3] = substrate: CC(=O)SCCNC(=O)CCNC(=O)[C@H](O)C(C)(C)COP(=O)(O)OP(=O)(O)OC[C@H]1O[C@@H](n2cnc3c(N)ncnc32)[C@H](O)[C@@H]1OP(=O)(O)O; assay: acetyl-CoA consumption at A233, Michaelis-Menten fit; conditions: 100 mM Tris/phosphate pH 9.0 (phosphate co-substrate), 20 mM KCl, 37°C, acetyl-CoA 50-200 µM
# Excerpt: acetyl-CoA consumption at A233, Michaelis-Menten fit on PgPta (PGN_1179)
Protein,Km [1] [µM],Vmax [1] [µmol/min/mg],kcat [1] [s⁻¹],Km [2] [µM],Vmax [2] [µmol/min/mg],kcat [2] [s⁻¹],Km [3] [µM],Vmax [3] [µmol/min/mg],kcat [3] [s⁻¹]
"PgAck (PGN_1178) (Porphyromonas gingivalis ATCC 33277) (protein, full length (398 residues), E. coli BL21(DE3), pET28a, N-terminal His6 tag cut off by thrombin; homodimer (108 kDa by gel filtration); EC 2.7.2.1) MKVLVLNCGSSSVKYKLLEMPKGDVLAQGGVEKLGLPGSFLKLTMPNGEKVVLEKDMPEHTIAVEFILSVLKDDKYGCIKSYEEIDAVGHRLVHGGEKFSNSVEITPEVIAKVEECIPLAPLHNPANLKGVVAIEKLLPGIRQVGVFDTAFFQTMPEHVYRYALPYDMCNKHGVRRYGFHGTSHRYVSARACEILGLDYDKTRIITAHIGNGASIAAIKNGKALDVSLGMTPVEGLMMGTRSGDVDPGVLTFLMEAEGLQAAGISELINKKSGVLGVSGVSSDLREIEDAIKNGNERATLAMTMYDYRIKKYVGAYAAAMGGVDVLVFTGGVGENQYTTREKVCTDMEFMGIVFDSKVNEGMRGKEMVISKPESKVTVIVVPTDEEYMIASDTMTILK",22.2 ± 0.2,145,105 ± 1,188 ± 22,145,105 ± 1,–,–,–
"PgPta (PGN_1179) (Porphyromonas gingivalis ATCC 33277) (protein, full length (domains span residues 1-336), E. coli BL21(DE3), pGEX-6P-1, GST tag cut off by PreScission protease; EC 2.3.1.8) MDLIQDVIRRAQENKQRIVLPEGLEPRTLEAADRLMADKVVNIILIGNVDSVKAKVAELGLKNLDEAVIIDPNNHPKKQQYTDLLLQIRQKKGLTPEKAAELVENPLYLGCLIVKSGDADGLIAGAQNTTGDVLRPALQVIKTAPGMTSVSGTFLLFTKAKEYGKDGLLLVADCAVIPNPTADELAQIAVATARTAKAIADIEPRVAMLSFSTKGSAKHEMTDKVVEATRMAQEMAPDLLIDGEMQADAALVERVAALKAPGSNVAGKANVLVFPTLEVGNIAYKLVERLGHAEAVGPILQGMAAPVNDLSRGCSVEDIYRMVAITANQAIAAKEQ",–,–,–,–,–,–,63.8 ± 7.5,2470 ± 105,1490 ± 63
